Earlier results on 1 molecule are cited in patent US9012177B2, “Methods and compositions for improving sugar transport, mixed sugar fermentation, and production of biofuels” (The Regents of the University of California, priority 2009, dated 2015).

The term Km denotes the concentration of substrate that gives half-maximal velocity. Usually kcat stands for the maximal rate divided by the concentration of active sites.

Read-outs that look alike come from different tables or passages of the source.

For the data set the following is noted: saturated xylitol, Watanabe et al. (2005b).

B1: psXDH (protein, UniProt P22144 1-363, looked up)
D-xylulose reductase: MTANPSLVLNKIDDISFETYDAPEISEPTDVLVQVKKTGICGSDIHFYAHGRIGNFVLTKPMVLGHESAGTVVQVGKGVTSLKVGDNVAIEPGIPSRFSDEYKSGHYNLCPHMAFAATPNSKEGEPNPPGTLCKYFKSPEDFLVKLPDHVSLELGALVEPLSVGVHASKLGSVAFGDYVAVFGAGPVGLLAAAVAKTFGAKGVIVVDIFDNKLKMAKDIGAATHTFNSKTGGSEELIKAFGGNVPNVVLECTGAEPCIKLGVDAIAPGGRFVQVGNAAGPVSFPITVFAMKELTLFGSFRYGFNDYKTAVGIFDTNYQNGRENAPIDFEQLITHRYKFKDAIEAYDLVRAGKGAVKCLIDGPE
Take B1: where the note is “NAD+”, the Michaelis constant (Km) is 381 µM. The turnover number (kcat) (NAD+) was 17.5 s⁻¹ and the catalytic constant (kcat) (NADP+) is 1.83 s⁻¹.
